From article PMC10720262 (Cell Reports, 2023)
Substitutions are numbered along the chain they refer to.

B1: CL-509025 (antibody, V domains shown)
VH: QVQLVESGGGVVQPGRSLRLSCVASGFTFSDYGMHWVRQAPGKGLEWVAVIWYDGTKEFFADSVKGRFTISRDNSKDTLYLQMNSLRAEDTGIYYCATYKWNSHLDYWGQGTLVTVSS
VL: EIVLTQSPATLSLSPGERATLSCRASQTISSYLAWYQQKPGQAPRLLIYDASNRATGIPARFSGSGSGTDFTLTISSLEPEDFTVYYCQQRSNWPLTFGGGTKVGIK
B2: CL-509930 (antibody, V domains shown)
VH: QVQLVESGGGVVQPGRSLRLSCAASGFTFSSYGMHWVRQAPGKGLEWVAIIWHDGSNKYYADSVKGRFTISRDNSKNTLYLQMNSLRAEDTAVYYCARDYSSFYFDYWGQGTLVTVSS
VL: not shown
B3: CL-462788 (antibody, V domains shown)
VH: QVQLVESGGGVVQPGRSLRLSCAASGFTFRNYGMHWVRQAPGKGLEWVAIIWYDGSYKFYADSVKGRFTISRDNSKNTLYLQMNSLRAEDTAMYYCARDDALELRSFDIWGQGTMVTVSS
VL: DVVMTQSPLSLPVTLGQPASISCRSSQSLVYSDENTYLSWFQQRPGQSPRRLIYKISNRDSGVPDRFSGSGSGTDFTLKISRVEAEDVGVYYCMQGTHWPRTFGQGTEVEIK
B4: CL-462911 (antibody, V domains shown)
VH: QVHLVESGGGVVQPGRSLTLSCAASGFTFSSCGMHWVRQAPGKGLEWLAVIWYDGSNKYYADSVKGRFTISRDNSKNTLYLQMNSLRAEDTAVYYCARDGGYVRDYYYGMDVWGQGTTVTVSS
VL: not shown
B5: CL-508731 (antibody, V domains shown)
VH: QVQLVESGGGVVQPGRSLRLSCVASGFTFSNNGMHWVRQAPGKGLEWVAIIWHDGSNKFYAESVRGRFTISRDNSNNTLYLQMNSLRAEDTAVYYCARDRMFGSGSWNYFDPWGQGTLVTVSS
VL: EIVLTQSPATLSLSPGERATLSCRASQSISTYLAWYQQKPGQAPRLLIYDASNRATGIPARFSGSGSGTDFTLTISSLEPEDFAVYYCQQRSYWWTFGQGTKVEIK
B6: CL-509370 (antibody, V domains shown)
VH: QVQLVESGGGVVQPGRSLRLSCAASGFTFSSYGMHWVRQAPGKGLEWVAVIWYDGSNKFYADSVKGHFTISRDNSKNTLYLQMNSLRAEDTAVYYCARDGRDLRGTGPYFDPWGQGTLVTVSS
VL: EIVMTQSPATLSVSPGERAILSCRASQSVSSNLAWYQQKPGQAPRLLIYGASIRATGIPARFRGSGSGTEFTLTISILQSEDFAVYYCQQYNNWITFGQGTRLEIK
B7: CL-460369 (antibody, V domains shown)
VH: QVQLVESGGGVVQPGRSLRLSCAASGFTFSNYGMHWVRQAPGKGLEWVGIIWYDGSNKYYIDSVKGRFTISRDNSRNTLYLQINSLRAEDTAVYYCARDGGWNDDYYYVMDVWGQGTTVTVSS
VL: DIVMTQSPDSLAVSLGEGATINCKSSQSVLYSSNNKNYLAWYQQKPGQPPKVLIYWASIRESGVPDRFSGSGSGTDFTLTISSLQAEDVAVYYCQQYYSMCSFGQGTKLEIK
B8: CL-458015 (antibody, V domains shown)
VH: QVHLVESGGGVVQPGRSLRLSCAASGFTFSNYGMHWVRQAPGKGLDWVAIIWYDGSNKFYADSVQGRFTISRDNSKNTLYLQMNSLRAEDTAVYYCAKVQDLLGVPSTLGDHYTTDVWGQGTSVTVSS
VL: DIQMTQSPSTLSASVGDRITITCRASQSINDWLAWYQQKAGKAPKLLIYKASSLESGVPSRFSGSGSGTDFTLTISSLQTDDFAIYYCQQYNHYWTFGQGTKVEIK
B9: CL-509494 (antibody, V domains shown)
VH: QVQLVESGGGVVQPGRSLRLSCAASGFTFSNFGMHWVRQSPGRGLEWVAIIWYDGSHKFYADSVKGRFTISRDNSKNTLYLQMNSLRAEDTAVYYCAKSEQRTNDHYYKYGMDVWGQGTTVTVST
VL: B8 VL with I19V, N30S, D31S, A40P, K45T, D70E, T80P, I85T, N92T, H93N
B10: CL-460406 (antibody, V domains shown)
VH: QIQLVESGGGVVQPGRSLRLSCAASGFTFSNSGMHWIRQAPGKGLEWVTIIWYDGSNKYYADSVKGRFTISRDNSKNTLYLQMNSLRAEDTAIYYCARAYSSSSDDYYGMDVWGQGTTVTVSS
VL: B8 VL with I19V, N30S, D31S, A40P, T80P, I85T, Y91F, N92Y, H93N, K106T
B11: CL-508758 (antibody, V domains shown)
VH: QVQLVESGGGVVQPGRSLRLSCAASGFTFSNYGMHWVRQTPGRDLEWVAIIWYDGSYKFYADSVKGRFSISRDNSKNTLNLEMKSLRVEDTAVYYCAKAYDTSSDDKYGMDVWGQGTTVTVTS
VL: B8 VL with I19V, N30S, D31I, A40P, K50R, S53D, D70G, T80P, I85T, H93S
B12: CL-464097 (antibody, V domains shown)
VH: QVQLVESGGGAVQPGRSLRLSCAASGFTFSYNGMHWVRQAPGKGLEWVAIIWYDGSNKYYAESVKGRFTISRDNSKDTLYLQMNSLRAEDTAIYYCVRAWNYEDKKYSMDVWGQGTTVTVSS
VL: B8 VL with I19V, N30S, D31S, A40P, T80P, I85T, H93Y, Y94F, K106R
B13: CL-464277 (antibody, V domains shown)
VH: QVQLVASGGGVVQPGRSLRLSCAVSGFTFRNYGMHWVRQDPGRGLEWVAIIWYDGSYKFYADSVKGRFTISRDNSKNTLYLQMNSLRAEDTAVYYCARSYGSLTGDQTKYGMDVWGQGTTVSVSS
VL: not shown
B14: CL-509940 (antibody, V domains shown)
VH: QVQLVESGGGVVQPGRSLRLSCAASGFTFSTYGMHWVRQAPGKGLEWVAVIWYDGSIKFYADSVKGRFTISRDDSKNTLYLQMNSLRAEDTAVYYCARDGGYSDSGRFGWFDPWGQGNLVTVSS
VL: EIVMTQSPVTLSVSPGERVTLSCRASQSVSSNLAWYQQKPGQAPRLLIYGASNRATGIPDRFSGSGSGTEFSLTVTSLQSEDFAVYYCQQYNQWRTFGQGTKVEIR
B15: CL-509177 (antibody, V domains shown)
VH: QVQLVESGGGVVQPGRSLRLSCAASGFSFSSYGMHWVRQTPGKGLEWVAIIWYDGSNKFYADSVKGRFIISRDNSKNTLYLQMNSLRAEDTAVYYCARDGGYSTSAGDFDYWGQGTLVTVSS
VL: EIVLTQSPGTLSLSPGERATLSCRASQSVSSSYLAWYQQKPGQAPRLLIYGASSRATGIPDRFSGRGSGTDFTLTISRLEPEDFAVYYCQQYVSSFTFGPGTKVDIN
B16: CL-460506 (antibody, V domains shown)
VH: QVQLVESGGGVVQPGRSLRLSCAASGFTFSNYGMHWVRQAPGKGLEWMAIIWYDGSNKYYADSVKGRFTISRDNSMNTLYLQMNSLRPEDTALYYCARAFYYGSGTLDYWGQGTLVTVSS
VL: EIVLTQSPATLSVSPGERATLSCRASQSVSSHLAWYQQKFGQAPRLLIYGASNRATGIPARFSGSGSGTEFTLTISILQSEDFAVYYCQQYNNWFTFGPGTKIDIK
B17: CL-453181 (antibody, V domains shown)
VH: QVQLVESGGGVVQPGRSLRLSCAASGFTFSYYGMHWVRQAPGKGLEWVSIIWYDGSNKFYADSVKGRFTISRDNSKDTLYLEMNSLRAEDTAVYYCARVEFYNGSGRDFYYGLDVWGQGTTVTVSS
VL: EIVMTQSPATLSVSPGEGATLSCRASQSVSSNLAWYQQKPGQAPRLLISGASTRATGVPARFSGSGSGTEFALTISSLQSEDFAVYYCQQYSKLWTFGQGTKVEIK
B18: CL-509293 (antibody, V domains shown)
VH: B9 VH with E6A, S21T, F32Y, H57N, S99A, H106N
VL: not shown
B19: CL-460619 (antibody, V domains shown)
VH: QVQLVESGGGVVQPGRSLRLSCAASGFTFDYYGMHWVRQAPGKGLEGVAIIWYDGSNKFYADSVKGRFTISRDNSKNTLYLQMTSLRVEDTAVYYCARDGRIGDPGPYFDYWGQGTLVTVSS
VL: EIVMTQSPATLSVSPGERPTLSCRASQSVSSKLAWYQQKPDQAPRLLIYGASTRATGIPPRFSGSGSGTEFTLTIDSLQSEDFAVYYCQQYHKWWTFGQGTKVEIK
B20: CL-509880 (antibody, V domains shown)
VH: QVQLVESGGGVVQPGRSLRLSCAASGFTFSNSGMHWVRQAPGKGLEWVAVIWYDGSNKYYADSVKGRFTVTRDNSKNTLYLQMNSLRAEDTAVYYCVRAYYGSGSYHFKYGMDVWGQGTTVTVSS
VL: not shown
B21: CL-509326 (antibody, V domains shown)
VH: QVYLVESGEGVVQPGRSLRLSCAASGFTFSNYGMHWVRQAPGKGLEWVAVIWYNGNNKFYADSVKGRFTISRDNSKNTLFLQMNSLRAEDTAVYFCARSGYSRSSYFDYWGQGTLVTVSS
VL: QSVLTQPPSVSGAPGQRVTISCTGSSSNIGAVYDVHWYQQLPGTAPKLLIYGNTNRPSGVPDRFSGSQSGTSASLAITGLQAEDEADYYCQSYDSSLSGSVFGGGTKLTVL
B22: CL-459075 (antibody, V domains shown)
VH: QVQLVASGGGVVQPGRSLRLSCAASGFTFSNYGMHWVRQAPGKGLEWVSIIWYDGSKKYYSDSVKGRFTISRDNSKNTLYLQMNSLRAEDTAVYYCARAYGSGSYSDDYYGMDVWGQGTTVTVSS
VL: DIQMTQSPSTLSASVGDRVTITCRASQSISTWLAWCQQKPGKAPKLLIYKASNLESGVPSRFSGSGSGTEFTLTISSLQPDDFATYYCQQYYSYWTFGQGTKVEIK
B23: CL-464181 (antibody, V domains shown)
VH: QVQLVESGGGAVQAGTSLRLSCAASGFSFSYNGMHWVRQGPGKGLEWVAIIWYDGGNKFYADSVKGRFTISRDNSKKMLYLQMNRLRAEDTAVYYCARAWNFADNKYSMDVWGQGTTVTVSA
VL: B22 VL with T31C, C36Y, K45Q, N53S, S93I, E104D
B24: CL-459404 (antibody, V domains shown)
VH: B22 VH with S49A, Y80N
VL: B22 VL with T31P, C36F, S93T

Target: recombinant full-length PfCSP (Plasmodium falciparum circumsporozoite protein, strain NF54) (Plasmodium falciparum NF54, UniProt P19597)
Sequence (P19597 20-375): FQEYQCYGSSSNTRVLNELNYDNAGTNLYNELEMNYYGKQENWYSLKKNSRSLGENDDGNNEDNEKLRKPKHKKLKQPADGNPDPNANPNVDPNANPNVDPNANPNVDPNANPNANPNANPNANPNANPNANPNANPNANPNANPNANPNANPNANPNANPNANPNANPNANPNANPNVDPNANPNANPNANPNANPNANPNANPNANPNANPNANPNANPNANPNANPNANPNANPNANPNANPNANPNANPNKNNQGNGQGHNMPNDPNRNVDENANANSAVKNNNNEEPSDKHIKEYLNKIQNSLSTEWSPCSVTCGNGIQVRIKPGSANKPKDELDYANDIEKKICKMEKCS

Row | Binder | binding result
1 | B1 | binds
2 | B2 | binds
3 | B3 | binds
4 | B4 | binds
5 | B5 | binds
6 | B6 | binds
7 | B7 | binds
8 | B8 | binds
9 | B9 | binds
10 | B10 | binds
11 | B11 | binds
12 | B12 | binds
13 | B13 | binds
14 | B14 | binds
15 | B15 | binds
16 | B16 | binds
17 | B17 | binds
18 | B18 | binds
19 | B19 | binds
20 | B20 | binds
21 | B21 | binds
22 | B22 | binds
23 | B23 | binds
24 | B24 | binds
